Assay results published in publication PMC10523585 (Molecular cell, 2023).

Key:
Experiment in all cases: cryo-EM structure
[1] = molecular target: Rpt5 (ATPase subunit of the human 26S proteasome) (human, UniProt P17980 1-439)
[2] = molecular target: Rpt1 (ATPase subunit of the human 26S proteasome) (human, UniProt P35998 1-433)
[3] = molecular target: T1, α7 (CP subunit of the human 26S proteasome) (human, UniProt P25788 2-255)
T1 sequence: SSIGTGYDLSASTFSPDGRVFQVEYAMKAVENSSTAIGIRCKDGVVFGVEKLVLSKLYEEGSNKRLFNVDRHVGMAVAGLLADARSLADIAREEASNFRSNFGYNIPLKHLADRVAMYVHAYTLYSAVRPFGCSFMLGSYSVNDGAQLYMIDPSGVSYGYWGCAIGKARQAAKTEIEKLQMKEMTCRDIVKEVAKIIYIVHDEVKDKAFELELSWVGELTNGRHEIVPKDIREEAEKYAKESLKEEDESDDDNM

[4] = molecular target: Rpn1 (non-ATPase, ubiquitin-binding subunit of the human 26S proteasome) (human, UniProt Q13200 1-908)
Chain of Rpn1 (non-ATPase, ubiquitin-binding subunit of the human 26S proteasome) (Q13200 whole entry): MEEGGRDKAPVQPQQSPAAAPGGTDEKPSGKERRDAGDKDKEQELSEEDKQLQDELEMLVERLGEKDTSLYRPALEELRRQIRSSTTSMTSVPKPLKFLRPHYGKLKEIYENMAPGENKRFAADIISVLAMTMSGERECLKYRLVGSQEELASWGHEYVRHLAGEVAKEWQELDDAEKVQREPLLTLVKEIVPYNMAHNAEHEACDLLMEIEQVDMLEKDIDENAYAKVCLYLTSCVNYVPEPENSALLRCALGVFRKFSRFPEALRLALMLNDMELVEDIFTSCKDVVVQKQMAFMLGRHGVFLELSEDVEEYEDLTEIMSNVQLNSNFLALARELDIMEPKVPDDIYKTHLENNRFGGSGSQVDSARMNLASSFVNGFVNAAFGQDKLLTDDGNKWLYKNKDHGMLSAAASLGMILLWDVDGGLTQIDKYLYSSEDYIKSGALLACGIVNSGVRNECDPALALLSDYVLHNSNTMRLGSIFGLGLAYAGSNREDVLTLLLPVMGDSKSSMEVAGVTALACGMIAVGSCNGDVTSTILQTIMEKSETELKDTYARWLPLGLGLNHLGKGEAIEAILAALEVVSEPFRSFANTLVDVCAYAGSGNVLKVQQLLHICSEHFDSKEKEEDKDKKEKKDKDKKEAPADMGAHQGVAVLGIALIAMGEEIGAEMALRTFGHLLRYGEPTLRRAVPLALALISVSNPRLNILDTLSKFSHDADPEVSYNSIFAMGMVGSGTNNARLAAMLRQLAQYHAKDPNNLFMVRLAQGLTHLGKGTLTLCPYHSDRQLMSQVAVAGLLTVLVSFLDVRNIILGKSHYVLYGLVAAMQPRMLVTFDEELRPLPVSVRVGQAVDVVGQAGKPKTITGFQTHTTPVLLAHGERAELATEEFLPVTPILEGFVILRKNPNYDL

Chain of Rpt1 (ATPase subunit of the human 26S proteasome) (P35998 whole entry): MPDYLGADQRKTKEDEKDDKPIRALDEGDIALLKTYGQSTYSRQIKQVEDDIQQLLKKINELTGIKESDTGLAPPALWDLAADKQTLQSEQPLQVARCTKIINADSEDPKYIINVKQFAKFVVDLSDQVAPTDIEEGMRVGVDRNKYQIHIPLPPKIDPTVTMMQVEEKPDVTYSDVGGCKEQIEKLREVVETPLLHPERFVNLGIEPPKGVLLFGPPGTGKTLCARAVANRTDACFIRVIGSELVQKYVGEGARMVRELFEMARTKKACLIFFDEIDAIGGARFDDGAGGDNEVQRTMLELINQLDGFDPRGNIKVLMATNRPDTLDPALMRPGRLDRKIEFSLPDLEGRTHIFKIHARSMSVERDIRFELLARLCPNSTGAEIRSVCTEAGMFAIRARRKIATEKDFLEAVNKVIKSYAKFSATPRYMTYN
Chain of Rpt5 (ATPase subunit of the human 26S proteasome) (P17980 whole entry): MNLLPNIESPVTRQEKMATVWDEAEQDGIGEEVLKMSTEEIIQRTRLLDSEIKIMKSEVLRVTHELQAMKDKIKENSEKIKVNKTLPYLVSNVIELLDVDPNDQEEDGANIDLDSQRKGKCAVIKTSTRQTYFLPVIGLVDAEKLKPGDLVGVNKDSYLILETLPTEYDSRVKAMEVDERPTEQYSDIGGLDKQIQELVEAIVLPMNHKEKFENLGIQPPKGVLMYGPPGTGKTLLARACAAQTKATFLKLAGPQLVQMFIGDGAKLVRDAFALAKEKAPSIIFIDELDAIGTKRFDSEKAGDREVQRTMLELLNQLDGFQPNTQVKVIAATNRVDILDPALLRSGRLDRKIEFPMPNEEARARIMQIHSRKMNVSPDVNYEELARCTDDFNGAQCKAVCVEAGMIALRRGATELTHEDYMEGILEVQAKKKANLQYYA

binding result [1]: binds
binding result [2]: binds
binding result [3]: binds
binding result [4]: binds
B1: ZFAND5 (recombinant mouse ZFAND5, wild type) (natural protein, UniProt O88878 1-213, looked up)
chain: MAQETNQTPGPMLCSTGCGFYGNPRTNGMCSVCYKEHLQRQQNSGRMSPMGTASGSNSPTSDSASVQRADAGLNNCEGAAGSTSEKSRNVPVAALPVTQQMTEMSISREDKITTPKTEVSEPVVTQPSPSVSQPSSSQSEEKAPELPKPKKNRCFMCRKKVGLTGFDCRCGNLFCGLHRYSDKHNCPYDYKAEAAAKIRKENPVVVAEKIQRI
